# Article PMC9095961
# Biological target: fluorescently labelled recombinant HAUSP (UniProt Q93009)
# Assay: other fluorescence titration; BODIPY FL-labelled HAUSP titrated with unlabeled PE_PGRS38; 25°C, 30 mM Tris pH 7.4, 150 mM NaCl, 1 mM dithiothreitol; fitted with Grafit
# Chain of UniProt Q93009 (Q93009 whole entry): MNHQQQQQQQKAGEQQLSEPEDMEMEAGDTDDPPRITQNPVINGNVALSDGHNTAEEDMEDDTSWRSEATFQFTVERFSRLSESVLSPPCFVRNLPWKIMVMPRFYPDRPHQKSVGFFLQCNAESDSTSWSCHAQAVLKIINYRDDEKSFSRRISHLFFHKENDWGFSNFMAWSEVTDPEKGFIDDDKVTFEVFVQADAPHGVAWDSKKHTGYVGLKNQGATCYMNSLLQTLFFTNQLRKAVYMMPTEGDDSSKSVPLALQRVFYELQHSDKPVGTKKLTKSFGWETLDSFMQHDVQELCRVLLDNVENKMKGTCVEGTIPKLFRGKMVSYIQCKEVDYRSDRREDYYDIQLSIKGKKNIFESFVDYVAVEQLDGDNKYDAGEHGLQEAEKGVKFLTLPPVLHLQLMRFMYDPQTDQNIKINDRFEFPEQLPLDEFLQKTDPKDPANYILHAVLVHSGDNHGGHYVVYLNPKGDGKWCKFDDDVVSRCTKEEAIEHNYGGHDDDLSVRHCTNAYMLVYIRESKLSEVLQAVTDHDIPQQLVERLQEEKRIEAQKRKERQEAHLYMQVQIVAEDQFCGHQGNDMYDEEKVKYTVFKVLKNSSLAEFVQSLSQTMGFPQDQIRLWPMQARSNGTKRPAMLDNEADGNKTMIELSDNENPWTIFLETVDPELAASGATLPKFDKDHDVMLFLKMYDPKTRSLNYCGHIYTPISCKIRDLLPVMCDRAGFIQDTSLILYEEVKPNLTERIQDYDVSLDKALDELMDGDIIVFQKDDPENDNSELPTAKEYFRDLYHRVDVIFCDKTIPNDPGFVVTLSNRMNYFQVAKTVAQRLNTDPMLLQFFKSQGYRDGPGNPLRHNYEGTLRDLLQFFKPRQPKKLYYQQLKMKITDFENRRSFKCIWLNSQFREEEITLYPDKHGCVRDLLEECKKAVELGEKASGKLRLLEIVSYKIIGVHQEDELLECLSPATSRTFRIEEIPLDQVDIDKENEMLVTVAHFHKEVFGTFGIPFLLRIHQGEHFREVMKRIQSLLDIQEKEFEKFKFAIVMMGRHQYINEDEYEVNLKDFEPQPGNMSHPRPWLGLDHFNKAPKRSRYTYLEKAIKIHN
substance,measurement,value
recombinant PE_PGRS38 (from UniProt L7N6A1 1-532) (natural protein),Kd,143 nM
